The values that follow are results of earlier work, collected in paper PMC7599640.

The target of this data set is alpha-bungarotoxin (Bungarus multicinctus) (UniProt P60615).
Sequence of UniProt P60615 (P60615 22-95): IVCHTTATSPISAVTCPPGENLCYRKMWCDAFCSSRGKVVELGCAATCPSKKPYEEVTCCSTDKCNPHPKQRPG

What is called Kd is the equilibrium constant for the complex coming apart. On to “Nicotinic acetylcholine receptor (from UniProt P02710)”, for which the Kd is 0.4 nM.
